± gives the standard deviation of the averaged measurements.
Experiment: total protein half-life in vivo (active degradation + dilution); higher = more stable protein
[1] = E. coli NCM3722 delta-clpP delta-lon delta-hslV, growth: N-lim chemostat, doubling time 6 h
[2] = E. coli NCM3722 delta-clpP, growth: N-lim chemostat, doubling time 6 h
[3] = E. coli NCM3722 delta-hslV, growth: N-lim chemostat, doubling time 6 h
[4] = E. coli NCM3722 delta-lon, growth: N-lim chemostat, doubling time 6 h
[5] = E. coli NCM3722 delta-smpB, growth: N-lim chemostat, doubling time 6 h
[6] = wild type E. coli NCM3722, growth: C-lim chemostat, doubling time 3 h
[7] = wild type E. coli NCM3722, growth: C-lim chemostat, doubling time 6 h
[8] = wild type E. coli NCM3722, growth: C-lim chemostat, doubling time 12 h
[9] = wild type E. coli NCM3722, growth: N-lim chemostat, doubling time 6 h
[10] = wild type E. coli NCM3722, growth: N-lim chemostat, doubling time 12 h
[11] = wild type E. coli NCM3722, growth: P-lim chemostat, doubling time 6 h
[12] = wild type E. coli NCM3722, growth: P-lim chemostat, doubling time 12 h

MKKIACLSALAAVLAFTAGTSVAATSTVTGGYAQSDAQGQMNKMGGFNLKYRYEEDNSPLGVIGSFTYTEKSRTASSGDYNKNQYYGITAGPAYRINDWASIYGVVGVGYGKFQTTEYPTYKHDTSDYGFSYGAGLQFNPMENVALDFSYEQSRIRSVDVGTWIAGVGYRF [P0A917]
total protein half-life in vivo [1]: 7.26 ± 0.62 h
total protein half-life in vivo [2]: 6.37 ± 0.47 h
total protein half-life in vivo [3]: 6.51 ± 0.36 h
total protein half-life in vivo [4]: 6.76 ± 0.59 h
total protein half-life in vivo [5]: 5.81 ± 0.095 h
total protein half-life in vivo [6]: 3.09 ± 0.13 h
total protein half-life in vivo [7]: 6.04 ± 0.27 h
total protein half-life in vivo [8]: 14.4 ± 0.89 h
total protein half-life in vivo [9]: 6.09 ± 0.073 h
total protein half-life in vivo [10]: 12.9 ± 1.1 h
total protein half-life in vivo [11]: 6.15 ± 0.19 h
total protein half-life in vivo [12]: 12.9 ± 0.62 h

MKKIAIVGAGPTGIYTLFSLLQQQTPLSISIFEQADEAGVGMPYSDEENSKMMLANIASIEIPPIYCTYLEWLQKQEDSHLQRYGVKKETLHDRQFLPRILLGEYFRDQFLRLVDQARQQKFAVAVYESCQVTDLQITNAGVMLATNQDLPSETFDLAVIATGHVWPDEEEATRTYFPSPWSGLMEAKVDACNVGIMGTSLSGLDAAMAVAIQHGSFIEDDKQHVVFHRDNASEKLNITLLSRTGILPEADFYCPIPYEPLHIVTDQALNAEIQKGEEGLLDRVFRLIVEEIKFADPDWSQRIALESLNVDSFAQAWFAERKQRDPFDWAEKNLQEVERNKREKHTVPWRYVILRLHEAVQEIVPHLNEHDHKRFSKGLARVFIDNYAAIPSESIRRLLALREAGIIHILALGEDYKMEINESRTVLKTEDNSYSFDVFIDARGQRPLKVKDIPFPGLREQLQKTGDEIPDVGEDYTLQQPEDIRGRVAFGALPWLMHDQPFVQGLTACAEIGEAMARAVVKPASRARRRLSFD
total protein half-life in vivo [1]: 4.97 ± 0.15 h
total protein half-life in vivo [2]: 4.38 ± 0.22 h
total protein half-life in vivo [3]: 4.07 ± 0.29 h
total protein half-life in vivo [4]: 4.14 ± 0.29 h
total protein half-life in vivo [5]: 3.75 ± 0.084 h
total protein half-life in vivo [6]: 3.05 ± 0.16 h
total protein half-life in vivo [7]: 5.2 ± 0.33 h
total protein half-life in vivo [8]: 8.04 ± 1.7 h
total protein half-life in vivo [9]: 3.89 ± 0.12 h
total protein half-life in vivo [10]: 6.3 ± 0.43 h
total protein half-life in vivo [11]: 5.59 ± 0.087 h
total protein half-life in vivo [12]: 9.95 ± 0.48 h

MKKIALAGLAGMLLVSASVNAMSISGQAGKEYTNIGVGFGTETTGLALSGNWTHNDDDGDVAGVGLGLNLPLGPLMATVGGKGVYTNPNYGDEGYAAAVGGGLQWKIGNSFRLFGEYYYSPDSLSSGIQSYEEANAGARYTIMRPVSIEAGYRYLNLSGKDGNRDNAVADGPYVGVNASF
total protein half-life in vivo [2]: > 8 h
total protein half-life in vivo [3]: > 8 h
total protein half-life in vivo [4]: 6.46 ± 1.8 h
total protein half-life in vivo [5]: 5.13 h
total protein half-life in vivo [6]: 2.53 ± 0.17 h
total protein half-life in vivo [9]: 4.53 ± 0.26 h
total protein half-life in vivo [11]: 4.72 h
total protein half-life in vivo [12]: 13 h

MKKIGVAGLQREQIKKTIEATAPGCFEVFIHNDMEAAMKVKSGQLDYYIGACNTGAGAALSIAIAVIGYNKSCTIAKPGIKAKDEHIAKMIAEGKVAFGLSVEHVEHAIPMLINHLK
total protein half-life in vivo [3]: 4.29 h
total protein half-life in vivo [6]: 3.02 h

MKKIGVILSGCGVYDGSEIHEAVLTLLAISRSGAQAVCFAPDKQQVDVINHLTGEAMTETRNVLIEAARITRGEIRPLAQADAAELDALIVPGGFGAAKNLSNFASLGSECTVDRELKALAQAMHQAGKPLGFMCIAPAMLPKIFDFPLRLTIGTDIDTAEVLEEMGAEHVPCPVDDIVVDEDNKIVTTPAYMLAQNIAEAASGIDKLVSRVLVLAE [P0ABU5]
total protein half-life in vivo [1]: 5.23 ± 0.27 h
total protein half-life in vivo [2]: 4.46 ± 0.24 h
total protein half-life in vivo [3]: 4.76 ± 0.49 h
total protein half-life in vivo [4]: 5.05 ± 0.41 h
total protein half-life in vivo [5]: 4.5 ± 0.09 h
total protein half-life in vivo [7]: 6.9 ± 1.3 h
total protein half-life in vivo [8]: 10.8 ± 0.44 h
total protein half-life in vivo [9]: 4.79 ± 0.54 h
total protein half-life in vivo [10]: 7.44 ± 0.33 h
total protein half-life in vivo [11]: 5.67 ± 0.31 h
total protein half-life in vivo [12]: 13.4 ± 0.84 h

MKKIIETQRAPGAIGPYVQGVDLGSMVFTSGQIPVCPQTGEIPADVQDQARLSLENVKAIVVAAGLSVGDIIKMTVFITDLNDFATINEVYKQFFDEHQATYPTRSCVQVARLPKDVKLEIEAIAVRSA [P0AGL2]
total protein half-life in vivo [3]: 4.94 ± 0.13 h
total protein half-life in vivo [4]: 5.08 ± 0.99 h
total protein half-life in vivo [5]: 3.9 h
total protein half-life in vivo [6]: 2.79 h
total protein half-life in vivo [7]: 5.42 h
total protein half-life in vivo [8]: 9.66 ± 1.9 h
total protein half-life in vivo [10]: 7.12 h
total protein half-life in vivo [11]: 6.2 h
total protein half-life in vivo [12]: 10.6 ± 0.78 h

MKKILLMLSLLFFTTAGFSEVSDTLVTGGYDKQAMSDAIKHARKETDKFIEVMNKKDADTFAVKAPITDHGRTEHFWLTDVTYSNGMFIGVISNDPGIVTNVEYGQEWKIKKEDISDWMYTRGDKIYGGYTIDPLLVTYPKEEADELRAKLVR
total protein half-life in vivo [1]: 3.76 h
total protein half-life in vivo [2]: 4.8 h
total protein half-life in vivo [3]: 4.78 ± 1.5 h
total protein half-life in vivo [4]: 5.28 h
total protein half-life in vivo [5]: 4.01 ± 0.41 h
total protein half-life in vivo [6]: 2.2 h
total protein half-life in vivo [7]: 5.15 ± 0.19 h
total protein half-life in vivo [8]: 6.65 h
total protein half-life in vivo [9]: 4.65 h
total protein half-life in vivo [10]: 7.64 h
total protein half-life in vivo [11]: 3.47 ± 0.23 h
total protein half-life in vivo [12]: 5.28 ± 1.1 h

MKKIWLALAGLVLAFSASAAQYEDGKQYTTLEKPVAGAPQVLEFFSFFCPHCYQFEEVLHISDNVKKKLPEGVKMTKYHVNFMGGDLGKDLTQAWAVAMALGVEDKVTVPLFEGVQKTQTIRSASDIRDVFINAGIKGEEYDAAWNSFVVKSLVAQQEKAAADVQLRGVPAMFVNGKYQLNPQGMDTSNMDVFVQQYADTVKYLSEKK [P0AEG4]
total protein half-life in vivo [1]: 5.32 ± 0.12 h
total protein half-life in vivo [2]: 5.05 ± 0.36 h
total protein half-life in vivo [3]: 6.08 ± 0.13 h
total protein half-life in vivo [4]: 6.83 ± 0.3 h
total protein half-life in vivo [5]: 6.24 ± 0.57 h
total protein half-life in vivo [6]: 3.03 ± 0.28 h
total protein half-life in vivo [7]: 5.32 ± 0.28 h
total protein half-life in vivo [8]: 8.77 ± 2.3 h
total protein half-life in vivo [9]: 5.73 ± 0.14 h
total protein half-life in vivo [10]: 11.62 ± 0.096 h
total protein half-life in vivo [11]: 5.665 ± 0.0088 h
total protein half-life in vivo [12]: 11.5 ± 1 h

MKKLALILFMGTLVSFYADAGRKPCSGSKGGISHCTAGGKFVCNDGSISASKKTCTN [P0ACW4]
total protein half-life in vivo [6]: 0.862 h
total protein half-life in vivo [7]: 4.49 h
total protein half-life in vivo [8]: 4.67 h

From the supplement of paper PMC11246515
